# Biological target: GST-WW-domain of Pin1 (UniProt Q13526)
# Sequence (Q13526 1-54): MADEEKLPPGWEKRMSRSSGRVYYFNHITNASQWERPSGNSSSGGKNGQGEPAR
substance,measurement,value
Cdc25C synthesized in vitro and phosphorylated by Xenopus mitotic extracts,dephosphorylation of precipitated Cdc25C by CIP,CIP failed to dephosphorylate Cdc25C
